Like-named read-outs stand apart in the source and are kept apart here.

Assay [1] has as its target CAAN.A2 (HIV-1).
Assay [2] concerns the target gp120 of X2088 (HIV-1 strain X2088.c9).
For assay [3], the target named is 6631.V3.C10 (HIV-1).
The next assay concerns the target G367A (HIV-1). In words: gp120 capture ELISA. For orientation: ELISA stands for enzyme-linked immunosorbent assay.
Another assay deals with V372A (HIV-1). The experiment in a line: gp120 capture ELISA.
A further assay deals with R469A (HIV-1). In words: gp120 capture ELISA.
A further assay has as its target P369A (HIV-1). The experiment in a line: gp120 capture ELISA.
The target in another assay is D457A (HIV-1). The experiment in a line: gp120 capture ELISA.
For another assay, the target named is T283A (HIV-1). The experiment in a line: gp120 capture ELISA.
For a further assay, the target named is N262A (HIV-1). In words: gp120 capture ELISA.
The target of a further assay is N197T (HIV-1). The experiment in a line: gp120 capture ELISA.
The target of another assay is M475A (HIV-1). In words: gp120 capture ELISA.
A further assay has as its target I371A (HIV-1). In words: gp120 capture ELISA.
Another assay has as its target N280A (HIV-1). The experiment in a line: gp120 capture ELISA.
For the next assay, the target named is D279A (HIV-1). In words: gp120 capture ELISA.
In the next assay the target is R476A (HIV-1). In words: gp120 capture ELISA.
A further assay has as its target S365A (HIV-1). The experiment in a line: gp120 capture ELISA.
For assay [4], the target named is monomeric gp120^JRCSF (HIV-1 strain JRCSF) (UniProt P20871). The experiment in a line: gp120 capture ELISA.
The next assay concerns the target K282A (HIV-1). In words: gp120 capture ELISA.
The target of the next assay is G471A (HIV-1). In words: gp120 capture ELISA.
In a further assay the target is E370A (HIV-1). The experiment in a line: gp120 capture ELISA.
The target in another assay is D474A (HIV-1). In words: gp120 capture ELISA.
The next assay addresses G366A (HIV-1). The experiment in a line: gp120 capture ELISA.
Another assay concerns the target D368A (HIV-1). In words: gp120 capture ELISA.
For the next assay, the target named is M373A (HIV-1). The experiment in a line: gp120 capture ELISA.
The next assay addresses G473A (HIV-1). In words: gp120 capture ELISA.
The target in a further assay is D167N (HIV-1). In words: gp120 capture ELISA.
The target in a further assay is I467A (HIV-1). The experiment in a line: gp120 capture ELISA.
A further assay has as its target N332A (HIV-1). The experiment in a line: gp120 capture ELISA.
A further assay has as its target G472A (HIV-1). In words: gp120 capture ELISA.
Assay [5] has as its target 6631.V3.C10 (HIV-1). The source holds these as a separate data set.
Assay [6] concerns the target CAAN.A2 (HIV-1). The source holds these as a separate data set.
The target in assay [7] is gp120 of X2088 (HIV-1 strain X2088.c9). The source holds these as a separate data set.
In assay [8] the target is 6631.V3.C10 (HIV-1). This is another data set of the same source.
For assay [9], the target named is SSB, Sjogren syndrome antigen B (Homo sapiens (Human)) (UniProt P05455). The experiment in a line: Luminex AtheNA Multi-Lyte ANA test.
In assay [10] the target is SSA, Sjogren's syndrome antigen A. The experiment in a line: Luminex AtheNA Multi-Lyte ANA test.
A further assay deals with Jo1 antigen. In words: Luminex AtheNA Multi-Lyte ANA test.
A further assay concerns the target Histone. The experiment in a line: Luminex AtheNA Multi-Lyte ANA test.
The target of a further assay is Sm, Smith antigen. In words: Luminex AtheNA Multi-Lyte ANA test.
In another assay the target is RNP, ribonucleoprotein. The experiment in a line: Luminex AtheNA Multi-Lyte ANA test.
Another assay concerns the target CentrB, centromere B. The experiment in a line: Luminex AtheNA Multi-Lyte ANA test.
In another assay the target is Scl 70, scleroderma 70. In words: Luminex AtheNA Multi-Lyte ANA test.

Sequence of CentrB, centromere B (P07199 2-599): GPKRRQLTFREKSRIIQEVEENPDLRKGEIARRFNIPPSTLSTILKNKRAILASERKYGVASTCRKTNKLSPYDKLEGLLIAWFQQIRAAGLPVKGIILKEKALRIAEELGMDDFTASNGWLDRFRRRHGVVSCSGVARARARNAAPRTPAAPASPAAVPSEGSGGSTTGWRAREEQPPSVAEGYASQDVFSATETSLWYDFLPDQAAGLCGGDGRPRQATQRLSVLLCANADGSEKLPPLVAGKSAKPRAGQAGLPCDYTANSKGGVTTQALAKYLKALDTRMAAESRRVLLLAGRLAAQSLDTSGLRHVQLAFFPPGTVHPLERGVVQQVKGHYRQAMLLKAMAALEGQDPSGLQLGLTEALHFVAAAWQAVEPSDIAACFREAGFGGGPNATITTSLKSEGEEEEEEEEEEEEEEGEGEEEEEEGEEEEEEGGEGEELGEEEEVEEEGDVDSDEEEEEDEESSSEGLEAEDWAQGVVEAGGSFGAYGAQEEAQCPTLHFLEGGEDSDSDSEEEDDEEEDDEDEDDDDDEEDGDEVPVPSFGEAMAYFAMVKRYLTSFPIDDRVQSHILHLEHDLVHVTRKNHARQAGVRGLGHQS
Sequence of SSB, Sjogren syndrome antigen B (Homo sapiens (Human)) (P05455 whole entry): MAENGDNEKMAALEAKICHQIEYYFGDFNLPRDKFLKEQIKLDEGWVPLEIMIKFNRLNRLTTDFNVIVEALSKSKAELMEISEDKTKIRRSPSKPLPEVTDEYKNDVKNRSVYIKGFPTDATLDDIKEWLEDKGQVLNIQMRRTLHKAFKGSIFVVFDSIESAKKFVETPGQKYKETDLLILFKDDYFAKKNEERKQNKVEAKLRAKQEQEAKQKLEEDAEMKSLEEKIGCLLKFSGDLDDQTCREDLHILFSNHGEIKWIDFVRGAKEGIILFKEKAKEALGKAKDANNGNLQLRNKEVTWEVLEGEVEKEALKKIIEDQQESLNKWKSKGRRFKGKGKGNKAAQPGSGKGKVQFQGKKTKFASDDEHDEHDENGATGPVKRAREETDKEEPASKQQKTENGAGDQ

As to “N6 heavy chain with VRC27 light chain (antibody)”, the neutralisation IC50 with CAAN.A2 (HIV-1) [1] is 0.278 µg/mL; in [2], over 50 µg/mL; in the assay with 6631.V3.C10 (HIV-1) [3] it was 0.285 µg/mL.
Consider 3BNC117 (antibody), for which the Binding affinity relative to WT (%) in the assay with G367A (HIV-1) was 25%; in the assay with V372A (HIV-1), 62%; with R469A (HIV-1), 97%; with P369A (HIV-1), 75%; in the assay with D457A (HIV-1), 84%; with T283A (HIV-1), 71%. The Binding affinity relative to WT (%) with N262A (HIV-1) is 33%; in the assay with N197T (HIV-1) it was 101%; with M475A (HIV-1) it was 169%; with I371A (HIV-1), 40%; with N280A (HIV-1), 36%; with D279A (HIV-1) it was 0%. In addition, the Binding affinity relative to WT (%) with R476A (HIV-1) was 171%; with S365A (HIV-1), 90%; in assay [4] it was 100%; in the assay with K282A (HIV-1), 3%; with G471A (HIV-1) it was 164%; in the assay with E370A (HIV-1), 31%. In addition, the Binding affinity relative to WT (%) with D474A (HIV-1) was found to be 38%; in the assay with G366A (HIV-1) it was 27%; with D368A (HIV-1), 16%; in the assay with M373A (HIV-1), 133%; with G473A (HIV-1), 40%; in the assay with D167N (HIV-1), 95%. Besides, the Binding affinity relative to WT (%) was determined as 87% with I467A (HIV-1), 82% with N332A (HIV-1) and 56% with G472A (HIV-1).
In the assay with 6631.V3.C10 (HIV-1) [5], N6 GGG60-62AHS VRC27 (antibody) displayed a neutralisation IC50 of 0.089 µg/mL.
With VRC01 ARP60-62GGGHC (antibody), the neutralisation IC50 in the assay with CAAN.A2 (HIV-1) [6] stood at 3.23 µg/mL.
In the case of VRC-PG04 (antibody), the Binding affinity relative to WT (%) in the assay with G367A (HIV-1) was determined as 19%; with V372A (HIV-1), 15%; with R469A (HIV-1), 6%; with P369A (HIV-1) it was 44%; in the assay with D457A (HIV-1), 0%; in the assay with T283A (HIV-1) it was 83%. Further, the Binding affinity relative to WT (%) with N262A (HIV-1) was found to be 14%; with N197T (HIV-1), 39%; in the assay with M475A (HIV-1), 90%; with I371A (HIV-1) it was 21%; with N280A (HIV-1) it was 12%; with D279A (HIV-1), 247%. Besides, the Binding affinity relative to WT (%) with R476A (HIV-1) was determined as 84%; with S365A (HIV-1) it was 34%; with K282A (HIV-1), 12%; with G471A (HIV-1) it was 64%; with E370A (HIV-1), 20%; with D474A (HIV-1), 0%. Moreover, the Binding affinity relative to WT (%) is 17% in the assay with G366A (HIV-1); 12% with D368A (HIV-1); 44% with M373A (HIV-1); 34% with G473A (HIV-1); 42% with D167N (HIV-1); 40% with I467A (HIV-1). The Binding affinity relative to WT (%) with N332A (HIV-1) came out at 31%; with G472A (HIV-1), 38%.
Regarding N6 with FRL1 of VRC01 (antibody), the results for the neutralisation IC50 (with CAAN.A2 (HIV-1) [6]; in [7]; with 6631.V3.C10 (HIV-1) [8]) were 1.01 µg/mL, 1.14 µg/mL and 0.642 µg/mL, respectively.
Consider VRC07 N6CDRH3 (antibody), for which the neutralisation IC50 with CAAN.A2 (HIV-1) [6] came to 2.18 µg/mL.
Consider VRC27 (antibody), for which, in the assay with CAAN.A2 (HIV-1) [1], the neutralisation IC50 amounted to 0.264 µg/mL. The Binding affinity relative to WT (%) in the assay with G367A (HIV-1) was determined as 0%; in the assay with V372A (HIV-1), 15%; with R469A (HIV-1), 0%; with P369A (HIV-1), 38%; with D457A (HIV-1), 19%; with T283A (HIV-1), 15%. For the same substance, the Binding affinity relative to WT (%) was found to be 0% in the assay with N262A (HIV-1); 28% with N197T (HIV-1); 35% in the assay with M475A (HIV-1); 0% in the assay with I371A (HIV-1); 0% with N280A (HIV-1); 7% with D279A (HIV-1). Further, the Binding affinity relative to WT (%) with R476A (HIV-1) worked out at 37%; with S365A (HIV-1), 107%; in [4], 100%; with K282A (HIV-1), 57%; with G471A (HIV-1), 131%; with E370A (HIV-1), 2%. Further, the Binding affinity relative to WT (%) with D474A (HIV-1) was 0%; with G366A (HIV-1), 3%; with D368A (HIV-1) it was 0%; with M373A (HIV-1) it was 23%; in the assay with G473A (HIV-1), 6%; in the assay with D167N (HIV-1) it was 37%. The figures for the Binding affinity relative to WT (%) with I467A (HIV-1), in the assay with N332A (HIV-1) and with G472A (HIV-1) were 27%, 57% and 0%, respectively.
Substance VRC01 G54YHC (antibody) displayed a neutralisation IC50 with CAAN.A2 (HIV-1) [6] of 1.31 µg/mL.
With N6 with CDRH1 of VRC27 (antibody), the neutralisation IC50 in the assay with 6631.V3.C10 (HIV-1) [5] worked out at 0.122 µg/mL.
In the case of N6 with CDRH1 of VRC01 (antibody), the neutralisation IC50 in [7] was 2.08 µg/mL; with 6631.V3.C10 (HIV-1) [8] it was over 50 µg/mL; with T250-4 (HIV-1), over 50 µg/mL.
As for synagis (antibody), the Luminex reactivity (unit not given) in [9] stood at 4.8; in [10], 3.3; in the assay with Jo1 antigen it was 2.5; in the assay with Histone, 3; in the assay with Sm, Smith antigen it was 2.3; with RNP, ribonucleoprotein, 1.3. The Luminex reactivity (unit not given) in the assay with CentrB, centromere B was 2; in the assay with Scl 70, scleroderma 70, 2.
Take N6 with CDRL1 of VRC01 (antibody): the neutralisation IC50 (in assay [7]; with 6631.V3.C10 (HIV-1) [8]) was over 50 µg/mL in each case.
For the substance N6 with CDRL3 of VRC01 (antibody), the neutralisation IC50 in assay [7] is 0.125 µg/mL; with 6631.V3.C10 (HIV-1) [8] it was 0.139 µg/mL.
Turning to VRC01 N6CDRH3 (antibody), the neutralisation IC50 with CAAN.A2 (HIV-1) [6] came out at 2.23 µg/mL.
In the case of 4E10 (antibody), the Luminex reactivity (unit not given) in assay [9] came out at 161; in assay [10] it was 31; with Jo1 antigen, 146; with Histone, 9; with Sm, Smith antigen it was 6.6; in the assay with RNP, ribonucleoprotein, 9. Besides, the Luminex reactivity (unit not given) with CentrB, centromere B was found to be 3; in the assay with Scl 70, scleroderma 70 it was 8.
In the assay with CAAN.A2 (HIV-1) [6], VRC08 N6CDRH3 (antibody) showed a neutralisation IC50 of over 50 µg/mL.
Regarding “N6 heavy chain with 12A21 light chain (antibody)”, the neutralisation IC50 in the assay with CAAN.A2 (HIV-1) [1] came to 3.71 µg/mL; in [2], 0.314 µg/mL; with 6631.V3.C10 (HIV-1) [3], 3.11 µg/mL.
“12A21 heavy chain with N6 light chain (antibody)”: in the assay with CAAN.A2 (HIV-1) [1], the neutralisation IC50 came to 11 µg/mL.
As for N6 with FRH3 of VRC01 (antibody), the neutralisation IC50 in the assay with 6631.V3.C10 (HIV-1) [8] worked out at 0.152 µg/mL.
In the case of “N6 heavy chain with VRC01 light chain (antibody)”, the neutralisation IC50 with CAAN.A2 (HIV-1) [1] was 0.211 µg/mL; in assay [2], over 50 µg/mL; with 6631.V3.C10 (HIV-1) [3], 1.04 µg/mL.
On to N6 with CDRH3 of VRC01 (antibody), for which, in the assay with T250-4 (HIV-1), the neutralisation IC50 was found to be 4.52 µg/mL.
In the case of N6 with FRL3 of VRC01 (antibody), the neutralisation IC50 (in assay [7]; in the assay with 6631.V3.C10 (HIV-1) [8]) was over 50 µg/mL each time.
In turn, “CD4-Ig (from UniProt P01730 26-203) (Fc fusion; other documents disagree on this pair)” yielded a Binding affinity relative to WT (%) in assay [4] of 100%.

For the origin of these results see patent US20180298083A1.
